These results are taken from paper PMC8809517, “Cofactor-independent RNA editing by a synthetic S-type PPR protein”.

Residue numbers refer to the chain shown, from its start.

Common to all, as to test: high-throughput RNA pulldown from lysate on Ni-NTA beads; HRP: 50 mM Tris pH 8, 150 mM NaCl, 1 mM beta-mercaptoethanol, 50 ug/ml BSA, 3 ug/ml yeast RNA, 0.5% heparin; ITC and FP: Tris pH 8, 200 mM KCl, 5% glycerol; MST: 50 mM Tris pH 8, 200 mM NaCl, 1 mM DTT, BSA, heparin, 0.05% Tween 20
Details in all cases: tags: N-terminal His-eGFP

Series [1] has as its target T1, GFP-9S library array, motif 4 ND D124N (synthetic construct, D124N).
T1 chain: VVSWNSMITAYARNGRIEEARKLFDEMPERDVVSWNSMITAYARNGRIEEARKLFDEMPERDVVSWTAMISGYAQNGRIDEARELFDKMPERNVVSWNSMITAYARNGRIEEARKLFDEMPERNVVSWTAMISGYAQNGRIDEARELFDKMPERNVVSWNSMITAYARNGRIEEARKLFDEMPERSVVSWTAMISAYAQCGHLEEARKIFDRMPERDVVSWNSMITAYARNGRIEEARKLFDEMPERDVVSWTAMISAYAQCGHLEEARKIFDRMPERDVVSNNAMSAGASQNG

Series [2] deals with T2, GFP-9S library array, motif 4 ND D124E (synthetic construct, D124E).
T2 chain: T1 chain with N124E

In series [3] the target is T3, GFP-9S library array, motif 4 ND N98F;D124M (synthetic construct, N98F;D124M).
T3 chain: T1 chain with N98F, N124M

Series [4] addresses T4, GFP-9S library array, motif 4 ND N98V;D124M (synthetic construct, N98V;D124M).
T4 chain: T1 chain with N98V, N124M

Series [5] concerns the target T5, GFP-9S library array, motif 4 ND N98V;D124A (synthetic construct, N98V;D124A).
T5 chain: T1 chain with N98V, N124A

AUUAAACGUGA (ssRNA) [IR-rpoA-A]: the Kd (as a rule, the constant that tells how readily two partners part at equilibrium) turned out to be 114 nM in series [1] (label: 5' IRDye 800CW); 139 nM in series [2] (label: 5' IRDye 800CW); 230 nM in series [3] (label: 5' IRDye 800CW); 431 nM in series [4] (label: 5' IRDye 800CW); 80.7 nM in series [5] (label: 5' IRDye 800CW).

Take AUUAGACGUGA (ssRNA) [Cy5-rpoA-G]: the dissociation constant Kd in series [1] (label: 5' Cy5) amounted to 178 nM; in series [2] (label: 5' Cy5), 276 nM; in series [3] (label: 5' Cy5), 69.1 nM; in series [4] (label: 5' Cy5) it was 155 nM; in series [5] (label: 5' Cy5), 74.1 nM.

Consider AUUACACGUGA (ssRNA) [Cy5-rpoA], for which the Kd was determined as 3.13 nM in series [1] (label: 5' Cy5); 10.5 nM in series [2] (label: 5' Cy5); 76.7 nM in series [3] (label: 5' Cy5); 148 nM in series [4] (label: 5' Cy5); 64.4 nM in series [5] (label: 5' Cy5).

On to AUUAUACGUGA (ssRNA) [IR-rpoA-U], for which the Kd stood at 11.6 nM in series [1] (label: 5' IRDye 800CW); 3.54 nM in series [2] (label: 5' IRDye 800CW); 194 nM in series [3] (label: 5' IRDye 800CW); 294 nM in series [4] (label: 5' IRDye 800CW); 71.8 nM in series [5] (label: 5' IRDye 800CW).
